Target: actin filament (UniProt P68135)
Assay: fluorescence microscopy in a microfluidics chamber

- Kd: 75 nM
Substance: fascin (from UniProt Q16658 1-493) (natural protein)

From article PMC7086397
